The target in the experiment is MBP-PPM-1.D-10xHIS (C. elegans). The experiment in a line: pull-down.

B1: GST-CHK-2-3xFLAG (enzyme)
chain: MVRGTKRRRSSAEKPIVVVPVTRDDTMPVDEDLVVGESQCAASKPFAKLVGVRRGISSIDLADDHFVCGRGSDDAPTNFNFSQVAKDVGLYRFISKIQFSIDRDTETRRIYLHDHSRNGTLVNQEMIGKGLSRELMNGDLISIGIPALIIFVYESADADHHPEELTKKYHVTSHSLGKGGFGKVLLGYKKSDRSVVAIKQLNTQFSTRCSRAIAKTRDIRNEVEVMKKLSHPNIVAIYDWITVAKYSYMVIEYVGGGEFFSKVVDSKYNRMGLGESLGKYFAFQLIDAILYLHSVGICHRDIKPENILCSDKAERCILKLTDFGMAKNSVNRMKTRCGTPSYNAPEIVANEGVEYTPKVDIWSLGCVLFITFSGYPPFSEEYTDMTMDEQVLTGRLIFHAQWRRITVETQNMIKWMLTVEPSNRPSAVELMSTQWMKCADCRTAKQDILKSIKPISAAAPAALQTTQAGPVKKAKM
As for B1, the fold CHK-2 pulled down, normalized, relative to truncated PPM-1.D turned out to be 20 fold.

Source of the values: article doi:10.1101/2021.08.02.453806.
